Test results reported in publication PMC6042154 (Proceedings of the National Academy of Sciences of the …, 2018).

Target: the molecule itself
Assay: native MS

B1: outer membrane porin F (OmpF) (natural protein)
chain: AEIYNKDGNKVDLYGKAVGLHYFSKGNGENSYGGNGDMTYARLGFKGETQINSDLTGYGQWEYNFQGNNSEGADAQTGNKTRLAFAGLKYADVGSFDYGRNYGVVYDALGYTDMLPEFGGDTAYSDDFFVGRVGGVATYRNSNFFGLVDGLNFAVQYLGKNERDTARRSNGDGVGGSISYEYEGFGIVGAYGAADRTNLQEAQPLGNGKKAEQWATGLKYDANNIYLAANYGETRNATPITNKFTNTSGFANKTQDVLLVAQYQFDFGLRPSIAYTKSKAKDVEGIGDVDLVNYFEVGATYYFNKNMSTYVDYIINQIDSDNKLGVGSDDTVAVGIVYQF
In the case of B1, the “stoichiometry N” value is reported as 3.
